Among the data in PMC4053984 are binding signal and binding signal (fold stronger than CAST sequence) values, retold here.

The target of this series is PRDM9Cst (Mus musculus (CAST/EiJ)) (UniProt Q96EQ9). In words: EMSA competition. To be noted: 10 mM Tris pH 7.5, 50 mM KCl, 1 mM DTT, 50 ng/ul poly(dI/dC), 0.05% NP-40, 0.5 pmol labelled dsDNA (printed pmol/l), 3 ul E. coli extract in 20 ul, 40 min, 5% …. (In EMSA bound probe runs differently from free probe, usually more slowly.)
Chain of PRDM9Cst (Mus musculus (CAST/EiJ)) (Q96EQ9 whole entry): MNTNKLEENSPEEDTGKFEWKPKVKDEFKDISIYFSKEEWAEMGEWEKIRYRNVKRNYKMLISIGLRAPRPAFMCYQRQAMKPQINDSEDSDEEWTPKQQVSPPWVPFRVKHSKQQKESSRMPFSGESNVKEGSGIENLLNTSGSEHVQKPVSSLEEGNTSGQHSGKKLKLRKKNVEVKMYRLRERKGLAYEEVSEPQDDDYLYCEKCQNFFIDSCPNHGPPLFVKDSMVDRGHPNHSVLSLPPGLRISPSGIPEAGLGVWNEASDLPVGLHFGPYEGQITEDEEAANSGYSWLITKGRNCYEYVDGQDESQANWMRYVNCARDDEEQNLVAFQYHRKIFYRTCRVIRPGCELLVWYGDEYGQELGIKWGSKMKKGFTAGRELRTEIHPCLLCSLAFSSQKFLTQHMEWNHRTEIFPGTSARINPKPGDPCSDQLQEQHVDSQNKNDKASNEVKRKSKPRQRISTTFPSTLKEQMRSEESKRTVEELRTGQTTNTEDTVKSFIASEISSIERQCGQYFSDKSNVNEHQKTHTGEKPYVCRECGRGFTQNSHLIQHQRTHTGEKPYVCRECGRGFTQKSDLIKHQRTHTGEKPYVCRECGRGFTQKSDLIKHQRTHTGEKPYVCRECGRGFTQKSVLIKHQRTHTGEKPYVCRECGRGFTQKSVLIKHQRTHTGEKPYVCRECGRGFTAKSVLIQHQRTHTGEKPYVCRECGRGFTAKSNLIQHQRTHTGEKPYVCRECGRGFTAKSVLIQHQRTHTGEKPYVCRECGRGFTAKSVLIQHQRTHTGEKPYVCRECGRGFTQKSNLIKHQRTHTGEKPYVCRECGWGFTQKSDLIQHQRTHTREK

Turning to “ATAAGTGTTCAGACTTGGACTCTGCCCTTCCTTTAC (double strand) [Hlx1 36 bp CAST]”, for the setting “scale: reference”, the binding signal is 1.
For the sequence “ATAGTGTGCAGACTTGGACCCTGCCCTTTCTTTACG (double strand) [Hlx1 36 bp B6]”, the binding signal (fold stronger than CAST sequence) worked out at 2.9.
